The source of these data is publication PMC8113490, “Androgen signaling uses a writer and a reader of ADP-ribosylation to regulate protein complex assembly” (Nature Communications, 2021).

The target in assay [1] is Flag-AR 4CG (C125, 290, 327, 406G) (human) (UniProt P10275). The experiment in a line: co-IP; AR IP from PC3M/HA-Parp7 cells stably expressing Flag-tagged WT AR or Cys-to-Gly mutants, treated +R1881; probed for AR, ADP-ribosylation, Dtx3L and Parp9.
The target in another assay is T1, Parp7 (Homo sapiens, UniProt Q7Z3E1).
T1 construct: gene TIPARP; N-terminal His6-T7-tagged Parp7 expressed in Sf21 insect cells
T1 sequence (Q7Z3E1 1-657): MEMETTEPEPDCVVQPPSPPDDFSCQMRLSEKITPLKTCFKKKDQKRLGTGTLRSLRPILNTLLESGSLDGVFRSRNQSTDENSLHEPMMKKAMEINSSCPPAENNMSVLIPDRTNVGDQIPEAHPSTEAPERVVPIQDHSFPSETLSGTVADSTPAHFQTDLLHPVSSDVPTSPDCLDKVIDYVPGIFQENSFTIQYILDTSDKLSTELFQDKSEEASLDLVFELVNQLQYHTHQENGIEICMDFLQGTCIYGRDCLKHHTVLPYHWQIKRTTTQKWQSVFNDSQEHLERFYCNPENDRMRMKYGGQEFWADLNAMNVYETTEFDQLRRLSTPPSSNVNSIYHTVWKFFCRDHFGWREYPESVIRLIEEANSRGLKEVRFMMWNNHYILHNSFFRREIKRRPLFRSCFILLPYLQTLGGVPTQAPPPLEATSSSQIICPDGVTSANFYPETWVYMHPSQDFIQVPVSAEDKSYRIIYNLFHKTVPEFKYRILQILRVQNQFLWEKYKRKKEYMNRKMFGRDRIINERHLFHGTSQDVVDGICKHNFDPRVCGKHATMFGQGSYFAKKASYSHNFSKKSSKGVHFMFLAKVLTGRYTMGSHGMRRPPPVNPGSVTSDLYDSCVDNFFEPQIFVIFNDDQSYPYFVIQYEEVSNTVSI
The experiment in a line: in vitro ADP-ribosylation of AR and automodification with recombinant Parp7 and NAD+. In kind it is biochemical.

Sequence of Flag-AR 4CG (C125, 290, 327, 406G) (human) (P10275 whole entry C125G/C290G/C327G/C406G): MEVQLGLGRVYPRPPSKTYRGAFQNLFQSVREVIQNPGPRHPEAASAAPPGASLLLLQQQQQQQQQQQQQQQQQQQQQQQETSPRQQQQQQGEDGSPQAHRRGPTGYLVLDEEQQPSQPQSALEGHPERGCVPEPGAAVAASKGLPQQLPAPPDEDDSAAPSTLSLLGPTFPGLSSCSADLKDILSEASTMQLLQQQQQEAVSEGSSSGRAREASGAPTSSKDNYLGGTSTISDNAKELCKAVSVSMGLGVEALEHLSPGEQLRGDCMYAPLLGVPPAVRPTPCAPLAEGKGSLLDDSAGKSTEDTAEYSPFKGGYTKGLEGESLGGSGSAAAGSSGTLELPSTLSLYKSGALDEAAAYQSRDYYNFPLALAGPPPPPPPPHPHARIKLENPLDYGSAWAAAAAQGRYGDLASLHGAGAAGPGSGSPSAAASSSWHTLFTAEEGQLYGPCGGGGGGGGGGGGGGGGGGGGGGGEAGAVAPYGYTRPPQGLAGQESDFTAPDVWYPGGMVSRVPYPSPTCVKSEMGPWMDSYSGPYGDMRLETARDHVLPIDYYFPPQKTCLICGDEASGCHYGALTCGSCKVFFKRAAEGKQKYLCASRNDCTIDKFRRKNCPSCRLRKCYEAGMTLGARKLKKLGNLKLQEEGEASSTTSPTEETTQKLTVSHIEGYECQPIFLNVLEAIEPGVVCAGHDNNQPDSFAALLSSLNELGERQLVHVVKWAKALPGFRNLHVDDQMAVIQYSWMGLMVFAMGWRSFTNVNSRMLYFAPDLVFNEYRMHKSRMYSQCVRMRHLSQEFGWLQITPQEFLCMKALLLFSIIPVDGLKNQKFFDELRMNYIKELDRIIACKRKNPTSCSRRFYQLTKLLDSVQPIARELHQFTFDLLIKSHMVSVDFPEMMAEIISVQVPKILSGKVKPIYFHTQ

Parp9 (enzyme): the complex formation, percent of WT in assay [1] was 50 % of WT.
`NC(=O)c1ccc[n+]([C@@H]2O[C@H](COP(=O)([O-])OP(=O)(O)OC[C@H]3O[C@@H](n4cnc5c(N)ncnc54)[C@H](O)[C@@H]3O)[C@@H](O)[C@H]2O)c1` [NAD^+]: the “in vitro ADP-ribosylation of AR and automodification with recombinant Parp7 and” value at Parp7 was “Combining recombinant Parp7, NAD^+, and bead-immobilized AR reconstituted ADP-ribosylation”.
